# According to publication PMC4778132, “CC chemokine receptor 10 cell surface presentation in melanocytes is regulated by the novel interaction partner S100A10” (Scientific Reports, 2016):
# Columns and labels:
# [1] = biological target: T1, recombinant HIS-tagged human S100A10 (wild type) (human, UniProt P60903 1-97); experiment: SPR; Biacore 3000; GST-CCR10 CT amine-coupled on a CM5 chip; six concentrations of HIS-tagged S100A10 derivative injected; HBS-P buffer (10 mM Hepes pH 7.4, 150 mM NaCl, 0.005% Tween-20), 25 °C; binding to GST alone subtracted; single binding site model, KD by the Scatchard equation; settings: both partners purified
# T1 construct: human S100A10, cDNA in pET28a(+); also called HIS-S100A10; S100A10 wt; source: E. coli BL21(DE3)pLysS, purified (Ni-NTA); not shown: poly-histidine (HIS), N-terminal, kept
# [2] = biological target: T1, recombinant HIS-tagged human S100A10 …; experiment: pull-down; GST fusion proteins (50 μg) on glutathione sepharose beads incubated with purified protein (10 μg), 2 hours at 4 °C, IP buffer (20 mM Tris-HCl pH 7.5, 25 mM NaCl, 10 mM NaF, 1 mM EDTA, 0.1% Triton-X 100); immunoblot; settings: both partners purified
# T1 sequence (P60903 whole entry): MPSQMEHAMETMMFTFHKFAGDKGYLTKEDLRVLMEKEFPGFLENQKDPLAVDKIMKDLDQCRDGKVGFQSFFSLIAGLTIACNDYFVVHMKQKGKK
Binder,Kd [1],binding result [2]
"GLRFRQDLRRLLRGGSCPSGPQPRRGCPRRPRLSSCSAPTETHSLSWDN (domain or fragment, UniProt P46092 314-362, looked up, C-terminal cytosolic tail of human CCR10, amino acid residues 314-362 (methods); the results print 314-369; Cloned in pGex-4T-1; Results print 314-369, methods 314-362; also called CCR10 CT_(314–369); pGex-CCR10CT_(314–362)) [GST-CCR10 CT (C-terminal cytoplasmic tail of human CCR10 fused to GST)]",~1000 nM,–
"GLRFRQDLRRLLRGGSCPSGPQPRRG (domain or fragment, human, UniProt P46092 314-339, looked up, C-terminal tail of human CCR10, amino acid residues 314-339 (stop codon inserted into pGex-CCR10CT); also called T1 mutant) [GST-CCR10 CT truncation mutant T1]",–,binds
